Results: paper PMC13334617

Molecular target: wild-type AC fused to GFP (AC-GFP), encoded by plasmid pAC0-Gfp (Bordetella pertussis | not stated) (UniProt P0DKX7)
Experiment: two-hybrid

Substance: calmodulin (CaM) with a 6-histidine tag at its N-terminus and a tetra-cysteine tag at its C-terminus, encoded by plasmid pTCam (from UniProt P0DP23 1-149) (natural protein)
- cAMP: > 250 nmol/mg
- ß gal (Rel. Units): 106 Rel. Units
